{"source": "patent CN1886424A", "about": "(dated 2006)", "key": {"[1]": {"target": "T1, 纯化的/生物素化的全长人IGF-I受体 (purified, biotinylated full-length human IGF-I receptor) (human, UniProt P08069 31-1367, biotinylated with PEO-maleimide-biotin (Kd and competition ELISAs); unmodified when coated directly)", "T1 construct": "mature; also called 生物素化的IGF-I受体; 纯化的人IGF-I受体", "T1 sequence (P08069 31-1367 limits assumed)": "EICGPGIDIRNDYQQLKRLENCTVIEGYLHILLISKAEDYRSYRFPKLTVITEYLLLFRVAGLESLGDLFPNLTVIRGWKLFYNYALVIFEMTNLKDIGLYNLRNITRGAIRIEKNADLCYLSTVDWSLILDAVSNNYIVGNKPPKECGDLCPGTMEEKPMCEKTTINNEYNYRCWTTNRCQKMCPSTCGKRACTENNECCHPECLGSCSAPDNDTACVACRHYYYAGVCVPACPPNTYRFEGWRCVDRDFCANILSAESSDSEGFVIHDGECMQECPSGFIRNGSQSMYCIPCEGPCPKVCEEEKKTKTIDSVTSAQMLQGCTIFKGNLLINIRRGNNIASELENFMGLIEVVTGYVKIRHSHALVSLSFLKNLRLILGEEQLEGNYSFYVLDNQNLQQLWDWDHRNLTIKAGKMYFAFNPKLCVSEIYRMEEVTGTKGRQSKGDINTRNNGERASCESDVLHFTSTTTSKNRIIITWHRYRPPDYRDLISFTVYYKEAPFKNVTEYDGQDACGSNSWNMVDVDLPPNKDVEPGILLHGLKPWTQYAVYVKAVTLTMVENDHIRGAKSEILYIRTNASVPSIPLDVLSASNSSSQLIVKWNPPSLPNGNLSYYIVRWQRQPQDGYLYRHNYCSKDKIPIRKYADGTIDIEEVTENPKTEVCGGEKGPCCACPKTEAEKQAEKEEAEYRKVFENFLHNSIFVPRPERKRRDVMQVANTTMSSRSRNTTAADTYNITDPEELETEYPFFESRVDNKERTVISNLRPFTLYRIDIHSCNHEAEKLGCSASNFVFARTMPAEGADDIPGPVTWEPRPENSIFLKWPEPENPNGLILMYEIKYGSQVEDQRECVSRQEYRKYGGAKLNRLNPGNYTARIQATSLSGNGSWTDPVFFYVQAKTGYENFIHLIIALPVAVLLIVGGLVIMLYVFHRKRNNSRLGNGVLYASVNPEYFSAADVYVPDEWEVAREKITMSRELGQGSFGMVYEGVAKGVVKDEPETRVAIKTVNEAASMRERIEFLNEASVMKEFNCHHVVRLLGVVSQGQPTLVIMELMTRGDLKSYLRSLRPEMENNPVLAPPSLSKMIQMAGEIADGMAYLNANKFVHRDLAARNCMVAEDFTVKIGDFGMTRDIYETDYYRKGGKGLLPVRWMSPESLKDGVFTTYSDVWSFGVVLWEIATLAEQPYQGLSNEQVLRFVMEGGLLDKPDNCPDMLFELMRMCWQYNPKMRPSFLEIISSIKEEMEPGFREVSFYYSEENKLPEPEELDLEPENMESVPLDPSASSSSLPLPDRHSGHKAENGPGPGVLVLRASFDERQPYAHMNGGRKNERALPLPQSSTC", "assay": "ELISA titration of the Fab on human IGF-I receptor"}, "[2]": {"target": "人肿瘤细胞上的人IGF-I受体 (endogenous human IGF-I receptor of human tumour cells: MCF-7, NCI-H838, SaOS-2 and others) (human) (UniProt P08069)", "assay": "cell-based or functional assay"}, "[3]": {"target": "过量表达于3T3样细胞上的人Y1251F IGF-I受体 (human IGF-I receptor with Y1251F mutation on 3T3-like cells) (human) (UniProt P08069)", "assay": "cell ELISA on dried cells overexpressing human Y1251F IGF-I receptor, 12 min colour development"}, "[4]": {"target": "人肿瘤细胞上的人IGF-I受体 (endogenous human IGF-I receptor of human tumour cells: MCF-7, NCI-H838, SaOS-2 and others) (human) (UniProt P08069)", "assay": "displacement of biotin-IGF-I from MCF-7 cells at 37℃, 30 min, 10-100 μg/mL antibody; capture ELISA"}, "[5]": {"target": "人肿瘤细胞上的人IGF-I受体 (endogenous human IGF-I receptor of human tumour cells: MCF-7, NCI-H838, SaOS-2 and others) (human) (UniProt P08069)", "assay": "displacement of biotin-IGF-I from MCF-7 cells at 4℃, 2 h; capture ELISA"}, "[6]": {"target": "T1, 纯化的/生物素化的全长人IGF-I受体 (purified, …)", "assay": "ELISA titration on biotinylated human IGF-I receptor captured on streptavidin, one-site non-linear regression"}}}
{"binder": "EM164抗体的Fab片段 (Fab fragment of EM164, papain digest) (Fab, V domains shown, also called EM164 Fab) VH: QVQLQQSGAELVKPGASVKLSCKASGYTFTSYWMHWVKQRPGQGLEWIGEINPSNGRTNYNEKFKRKATLTVDKSSSTAYMQLSSLTSEDSAVYYFARGRPDYYGSSKWYFDVWGAGTTVTVSS VL: DVLMTQTPLSLPVSLGDQASISCRSSQSIVHSNVNTYLEWYLQKPGQSPKLLIYKVSNRFSGVPDRFSGSGSGTDFTLRISRVEAEDLGIYYCFQGSHVPPTFGGGTKLEIKR", "values": [{"measurement": "Kd", "setting": "[1]", "result": 0.3, "unit": "nM"}]}
{"binder": "鼠抗IGF-I受体抗体EM164 (murine anti-IGF-I receptor antibody EM164) (antibody, V domains shown, Purified from hybridoma; also called EM164抗体; muEM164) VH: QVQLQQSGAELVKPGASVKLSCKASGYTFTSYWMHWVKQRPGQGLEWIGEINPSNGRTNYNEKFKRKATLTVDKSSSTAYMQLSSLTSEDSAVYYFARGRPDYYGSSKWYFDVWGAGTTVTVSS VL: DVLMTQTPLSLPVSLGDQASISCRSSQSIVHSNVNTYLEWYLQKPGQSPKLLIYKVSNRFSGVPDRFSGSGSGTDFTLRISRVEAEDLGIYYCFQGSHVPPTFGGGTKLEIKR", "values": [{"measurement": "MCF-7 cell cycle, percent of cells in G0/G1 phase with IGF-I (20 ng/mL) plus EM164 (20 μg/mL); 50% without EM164", "setting": "[2]", "result": 77, "unit": "%"}, {"measurement": "MCF-7 cell cycle, percent of cells in S phase with IGF-I (20 ng/mL) plus EM164 (20 μg/mL); 41% without EM164", "setting": "[2]", "result": 9, "unit": "%"}, {"measurement": "percent inhibition of IGF-I-stimulated growth in serum-free medium, MTT assay, A 375 (melanoma)", "setting": "[2]", "result": 90, "unit": "%"}, {"measurement": "percent inhibition of IGF-I-stimulated growth in serum-free medium, MTT assay, A431 (epidermoid)", "setting": "[2]", "result": 85, "unit": "%"}, {"measurement": "percent inhibition of IGF-I-stimulated growth in serum-free medium, MTT assay, Calu-6", "setting": "[2]", "result": 85, "unit": "%"}, {"measurement": "percent inhibition of IGF-I-stimulated growth in serum-free medium, MTT assay, Colo 205 (colon)", "setting": "[2]", "result": 50, "unit": "%"}, {"measurement": "percent inhibition of IGF-I-stimulated growth in serum-free medium, MTT assay, HT-29", "setting": "[2]", "result": 60, "unit": "%"}, {"measurement": "percent inhibition of IGF-I-stimulated growth in serum-free medium, MTT assay, SK-Mel-37", "setting": "[2]", "result": 85, "unit": "%"}, {"measurement": "percent inhibition of IGF-I-stimulated growth in serum-free medium, MTT assay, SK-N-SH (neuroblastoma)", "setting": "[2]", "result": 85, "unit": "%"}, {"measurement": "absorbance (cell ELISA signal) (absorbance units)", "setting": "[3]", "result": 0.88}, {"measurement": "percent displacement of pre-bound biotinylated IGF-I", "setting": "[4]", "result": 90, "unit": "%"}, {"measurement": "percent displacement of pre-bound biotinylated IGF-I", "setting": "[5]", "result": 50, "unit": "%"}, {"measurement": "Kd", "setting": "[6]", "result": 0.1, "unit": "nM"}]}
